Reference: patent US20230106247A1 (L AND L BIO CO LTD NINGBO CHINA, published 2023)

How the values were obtained:
human Sirpα-V1-his = biological target: T1, human Sirpα-V1-his (human, UniProt P78324 31-373); assay: blocking ELISA, competitor CD47-hFc
T1 construct: range 31-373; Bought (Sino Biological 11612-H08H) or expressed in-house; also called hSirpα-V1; hSirpα-V1-his
Procedure: The recombinant proteins such as human Sirpα-V1-hFc/Sirpα-V1-his were diluted to concentrations of 5 μg/mL or 2 μg/mL respectively with a PBS buffer at pH 7.4, and then added into a 96-well ELISA plate (Corning, CLS3590-100EA) at a volume of 50 μL/well, and placed in an incubator at 37° C. for 2 hours. After the liquid was discarded, the wells were added with a blocking solution of 5% skimmed milk (skimmed milk powder available from Bright Dairy) diluted with PBS at 230 μL/well, and incubated in an incubator at 37° C. for 3 hours, or placed overnight at 4° C. (for 16-18 hours) for blocking. […] The plate was washed for 5 times, added with 50 μL/well of streptavidin-HRP (GenScript, M00091) or anti-his-HRP secondary antibody (GenScript, A00612) diluted at 1:1000, incubated at 37° C. for 1 hour, and then washed with PBST for 5 times. Each well was added with 50 μL of TMB (Surmodic, Cat #: TTMB-1000-01) for color development, and added with 50 μL/well of 1 M H₂SO₄ to stop the reaction. The readings on a microplate reader (MultiskanGO Thermo, Model 51119200) were subjected to data analysis by GraphPad prism 5.

human Sirpα-V2-his = human Sirpα-V2-his (human); assay: blocking ELISA, competitor CD47-hFc
Procedure: Specifically, the recombinant protein of human Sirpα-V2-his was diluted to a concentration of 2 μg/mL with a PBS buffer at pH7.4, then added into a 96-well ELISA plate (Corning, CLS3590-100EA) at a volume of 50 μL/well, and placed in an incubator at 37° C. for 2 hours. After the liquid was discarded, the wells were added with a blocking solution of 5% skimmed milk (skimmed milk powder available from Bright Dairy) diluted with PBS at 230 μL/well, and incubated in an incubator at 37° C. for 3 hours, or placed overnight at 4° C. (for 16-18 hours) for blocking. […] The plate was washed for 5 times, added with 50 μL/well of a streptavidin-HRP secondary antibody (GenScript, M00091) diluted at 1:1000, incubated at 37° C. for 1 hour, and then washed with PBST for 5 times. Each well was added with 50 μL TMB (Surmodic, Cat #TTMB-1000-01) for color development, and added with 50 μL/well of 1 M H₂SO₄ to stop the reaction. The readings on a microplate reader (MultiskanGO Thermo, Model: 51119200) were subjected to data analysis by GraphPad prism 5.

Sequence of human Sirpα-V2-his (human) (chain, as listed by the source): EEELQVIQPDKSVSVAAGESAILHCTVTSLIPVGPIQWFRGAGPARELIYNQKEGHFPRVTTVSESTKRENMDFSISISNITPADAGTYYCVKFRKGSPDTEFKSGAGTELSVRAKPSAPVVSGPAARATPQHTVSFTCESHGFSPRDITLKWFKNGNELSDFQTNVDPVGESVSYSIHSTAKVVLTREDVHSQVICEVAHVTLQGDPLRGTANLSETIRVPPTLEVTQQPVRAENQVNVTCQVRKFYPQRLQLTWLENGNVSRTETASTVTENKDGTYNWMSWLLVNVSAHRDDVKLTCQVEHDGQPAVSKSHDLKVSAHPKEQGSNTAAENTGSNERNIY

IC50 (human Sirpα-V1-his): 10.1 nM | IC50 (human Sirpα-V2-his): 6.29 nM
B1: humanized antibody mab14-h16 (antibody, human IgG4 S228P, kappa, V domains shown)
VH: QVQLVQSGAEVKKPGASVKVSCKASGYNFNIYWINWVRQAPGQGLEWIGNIYPSSISTNYNEKFKTRATLTVDKSTSTVYMELSSLRSEDTAVYYCARSEGTYYGGRYEGDWFGYWGQGTLVTVSS
VL: DIQMTQSPSSLSASVGDRVTITCRASQDIRNYLNWYQQKPGKAPKLLIYFTSTLHSGVPSRFSGSGSGTDFTLTISSLQPEDFATYYCQQGNTLPWTFGGGTKVEIKR
notes: hIgG4, κ
